The target in data set [1] is T1, KPREcoli (ketopantoate reductase from E. coli) (Escherichia coli, UniProt P0A9J4).
T1 construct: gene panE; recombinant wild type; tags and purification only in the supplement
T1 sequence (P0A9J4 1-303): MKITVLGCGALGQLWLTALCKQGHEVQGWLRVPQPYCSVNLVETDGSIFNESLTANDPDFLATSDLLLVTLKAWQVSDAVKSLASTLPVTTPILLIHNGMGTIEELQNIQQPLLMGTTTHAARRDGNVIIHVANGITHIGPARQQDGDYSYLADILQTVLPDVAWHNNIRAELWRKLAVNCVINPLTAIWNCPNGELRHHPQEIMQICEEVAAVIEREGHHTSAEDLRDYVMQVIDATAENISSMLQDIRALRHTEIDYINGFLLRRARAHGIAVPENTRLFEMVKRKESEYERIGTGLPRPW
In words: NADPH oxidation at […] nm, continuous. It is filed as biochemical. Particulars: NADPH 0.16 mM; 50 mM Tris-HCl pH 8.0; 30 °C; substrate inhibition.

Substrate in data set [2]: O=C(O)C(=O)CCO
In words: purified protein. It is filed as biochemical, Escherichia coli. As to conditions: NADPH 0.16 mM, 50 mM Tris-HCl pH 8.0, 30 °C.

Substrate in data set [3]: CC(C)[C@@H](CO)C(=O)C(=O)O
Kind of data set: purified protein. The class given is biochemical, Escherichia coli. Particulars: NADPH 0.16 mM, 50 mM Tris-HCl pH 8.0, 30 °C.

Substrate in data set [4]: C[C@H](CO)C(=O)C(=O)O
In words: purified protein. As to conditions: NADPH 0.16 mM, 50 mM Tris-HCl pH 8.0, 30 °C. The class given is biochemical, Escherichia coli.

Substrate in data set [5]: COCC[C@H](CO)C(=O)C(=O)O
Kind of data set: purified protein. It is filed as biochemical, Escherichia coli. Particulars: NADPH 0.16 mM, 50 mM Tris-HCl pH 8.0, 30 °C.

Substrate in data set [6]: CC[C@@H](CO)C(=O)C(=O)O
Kind of data set: purified protein. The class given is biochemical, Escherichia coli. Particulars: NADPH 0.16 mM, 50 mM Tris-HCl pH 8.0, 30 °C.

Substrate in data set [7]: O=C(O)C(=O)C1(CO)CCCC1
Kind of data set: purified protein. The class given is biochemical, Escherichia coli. As to conditions: NADPH 0.16 mM, 50 mM Tris-HCl pH 8.0, 30 °C.

Substrate in data set [8]: CC(C)(CO)C(=O)C(=O)O
In words: purified protein. The class given is biochemical, Escherichia coli. As to conditions: NADPH 0.16 mM, 50 mM Tris-HCl pH 8.0, 30 °C.

Substrate in data set [9]: C=CC[C@H](CO)C(=O)C(=O)O
In words: purified protein. The class given is biochemical, Escherichia coli. Particulars: NADPH 0.16 mM, 50 mM Tris-HCl pH 8.0, 30 °C.

Substrate in data set [10]: CC[C@H](CO)C(=O)C(=O)O
In words: purified protein. The class given is biochemical, Escherichia coli. As to conditions: NADPH 0.16 mM, 50 mM Tris-HCl pH 8.0, 30 °C.

Substrate in data set [11]: C[C@@H](CO)C(=O)C(=O)O
Kind of data set: purified protein. It is filed as biochemical, Escherichia coli. Particulars: NADPH 0.16 mM, 50 mM Tris-HCl pH 8.0, 30 °C.

Substrate in data set [12]: C=CC[C@@H](CO)C(=O)C(=O)O
In words: purified protein. The class given is biochemical, Escherichia coli. Particulars: NADPH 0.16 mM, 50 mM Tris-HCl pH 8.0, 30 °C.

Substrate in data set [13]: O=C(O)C(=O)C1(CO)CCC1
In words: purified protein. The class given is biochemical, Escherichia coli. As to conditions: NADPH 0.16 mM, 50 mM Tris-HCl pH 8.0, 30 °C.

Substrate in data set [14]: O=C(O)C(=O)CCO
Kind of data set: purified protein. It is filed as biochemical, Pseudomonas syringae group genomosp. 3. Particulars: NADPH 0.16 mM, 50 mM Tris-HCl pH 8.0, 30 °C.

Substrate in data set [15]: C[C@H](CO)C(=O)C(=O)O
Kind of data set: purified protein. The class given is biochemical, Pseudomonas syringae group genomosp. 3. Particulars: NADPH 0.16 mM, 50 mM Tris-HCl pH 8.0, 30 °C.

Substrate in data set [16]: O=C(O)C(=O)C[C@@H](O)CO
In words: purified protein. It is filed as biochemical, Pseudomonas syringae group genomosp. 3. As to conditions: NADPH 0.16 mM, 50 mM Tris-HCl pH 8.0, 30 °C.

Substrate in data set [17]: CC[C@@H](CO)C(=O)C(=O)O
Kind of data set: purified protein. It is filed as biochemical, Pseudomonas syringae group genomosp. 3. As to conditions: NADPH 0.16 mM, 50 mM Tris-HCl pH 8.0, 30 °C.

Substrate in data set [18]: C[C@@H](CO)C(=O)C(=O)O
Kind of data set: purified protein. The class given is biochemical, Pseudomonas syringae group genomosp. 3. Particulars: NADPH 0.16 mM, 50 mM Tris-HCl pH 8.0, 30 °C.

Broadly, the Km is the concentration of substrate that gives half-maximal velocity. In general, kcat refers to the maximal rate divided by the concentration of active sites. For orientation: kcat/Km means the second-order rate constant that governs catalysis at low substrate concentration.

Consider `CC(C)(CO)C(=O)C(=O)O` [3j, ketopantoate], for which the “KPREcoli ^b / ksi^app” value in data set [1] came out at 3.9 ± 1.3 mM.

As for `O=C(O)C(=O)C1(CO)CCCC1` [3l], the “KPREcoli ^b / ksi^app” value in [1] is on record as 28 ± 4 mM.

For the molecule `O=C(O)C(=O)C1(CO)CCC1` [3k], the “KPREcoli ^b / ksi^app” value in data set [1] is reported as 6.6 ± 1.5 mM.

B1: KPREcoli (ketopantoate reductase from E. coli) (Escherichia coli K-12) (protein)
chain: MKITVLGCGALGQLWLTALCKQGHEVQGWLRVPQPYCSVNLVETDGSIFNESLTANDPDFLATSDLLLVTLKAWQVSDAVKSLASTLPVTTPILLIHNGMGTIEELQNIQQPLLMGTTTHAARRDGNVIIHVANGITHIGPARQQDGDYSYLADILQTVLPDVAWHNNIRAELWRKLAVNCVINPLTAIWNCPNGELRHHPQEIMQICEEVAAVIEREGHHTSAEDLRDYVMQVIDATAENISSMLQDIRALRHTEIDYINGFLLRRARAHGIAVPENTRLFEMVKRKESEYERIGTGLPRPW
notes: recombinant wild type; tags and purification only in the supplement
Consider B1, for which the Km is reported as 4.9 ± 1.2 mM in the data set “purified protein [2]”; 13 ± 2 mM in “purified protein [3]”; 4.8 ± 0.4 mM in “purified protein [4]”; 18 ± 3 mM in the data set “purified protein [5]”; 3.0 ± 0.5 mM in the data set “purified protein [6]”; 0.2 ± 0.1 mM in “purified protein [7]”. Also, the Km came to 0.4 ± 0.2 mM in the data set “purified protein [8]”; 9.5 ± 1.5 mM in the data set “purified protein [9]”; 7 ± 1 mM in “purified protein [10]”; 12.9 ± 1.4 mM in the data set “purified protein [11]”; 9.5 ± 1.7 mM in “purified protein [12]”; 1.5 ± 0.5 mM in the data set “purified protein [13]”. For the same molecule, the kcat in “purified protein [2]” was determined as 0.118 ± 0.0083 s⁻¹; in “purified protein [3]”, 17.02 ± 1.15 s⁻¹; in “purified protein [4]”, 89.17 ± 2.3 s⁻¹; in “purified protein [5]”, 0.0983 ± 0.0083 s⁻¹; in “purified protein [6]” it was 15.4 ± 0.617 s⁻¹; in the data set “purified protein [7]”, 19.43 ± 1.12 s⁻¹. For the same molecule, the turnover number (kcat) was 74.28 ± 13.6 s⁻¹ in “purified protein [8]”; 1.5 ± 0.083 s⁻¹ in the data set “purified protein [9]”; 11.7 ± 0.567 s⁻¹ in “purified protein [10]”; 5.8 ± 0.25 s⁻¹ in the data set “purified protein [11]”; 1.48 ± 0.1 s⁻¹ in the data set “purified protein [12]”; 113.2 ± 17.03 s⁻¹ in the data set “purified protein [13]”. For the same molecule, the kcat/Km in “purified protein [2]” came to 25 M⁻¹ s⁻¹; in “purified protein [3]” it was 1280 M⁻¹ s⁻¹; in the data set “purified protein [4]” it was 18500 M⁻¹ s⁻¹; in the data set “purified protein [5]” it was 5.67 M⁻¹ s⁻¹; in the data set “purified protein [6]” it was 5230 M⁻¹ s⁻¹; in “purified protein [7]”, 92800 M⁻¹ s⁻¹. The kcat/Km was 179000 ± 76500 M⁻¹ s⁻¹ in “purified protein [8]”; 157 M⁻¹ s⁻¹ in the data set “purified protein [9]”; 1770 M⁻¹ s⁻¹ in the data set “purified protein [10]”; 450 M⁻¹ s⁻¹ in “purified protein [11]”; 157 M⁻¹ s⁻¹ in “purified protein [12]”; 73800 M⁻¹ s⁻¹ in “purified protein [13]”.

B2: DpkAPsyrin (Δ1-piperidine-2-carboxylate/Δ1-pyrroline-2-carboxylate reductase) (Pseudomonas syringae pv. tomato) (protein)
chain: MSASHADQPTQTVSYPQLIDLLRRIFVVHGTSPEVADVLAENCASAQRDGSHSHGIFRIPGYLSSLASGWVDGKAVPVVEDVGAAFVRVDACNGFAQPALAAARSLLIDKARSAGVAILAIRGSHHFAALWPDVEPFAEQGLVALSMVNSMTCVVPHGARQPLFGTNPIAFGAPRAGGEPIVFDLATSAIAHGDVQIAAREGRLLPAGMGVDRDGLPTQEPRAILDGGALLPFGGHKGSALSMMVELLAAGLTGGNFSFEFDWSKHPGAQTPWTGQLLIVIDPDKGAGQHFAQRSEELVRQLHGVGQERLPGDRRYLERARSMAHGIVIAQADLERLQELAGH
notes: as for B1
For the molecule B2, the Michaelis constant (Km) in “purified protein [14]” turned out to be 33 ± 7 mM; in the data set “purified protein [15]”, 7.5 ± 1.9 mM; in “purified protein [16]” it was 11 ± 1 mM; in “purified protein [17]”, 14 ± 2 mM; in “purified protein [18]”, 19 ± 4 mM. The turnover number (kcat) was determined as 0.0283 ± 0.0033 s⁻¹ in the data set “purified protein [14]”; 4e-05 ± 3.3e-06 s⁻¹ in the data set “purified protein [15]”; 0.05 ± 0.00033 s⁻¹ in the data set “purified protein [16]”; 0.00383 ± 0.00017 s⁻¹ in “purified protein [17]”; 0.0183 ± 0.0017 s⁻¹ in “purified protein [18]”. The kcat/Km in the data set “purified protein [14]” was 0.867 M⁻¹ s⁻¹; in “purified protein [16]” it was 4.67 M⁻¹ s⁻¹; in “purified protein [17]”, 0.267 M⁻¹ s⁻¹; in “purified protein [18]” it was 0.967 M⁻¹ s⁻¹.

Values taken from publication PMC10127515, “Biocatalytic Synthesis of Homochiral 2-Hydroxy-4-butyrolactone Derivatives by Tandem Aldol Addition and Carbonyl Reduction” (ACS Catalysis, 2023).
